What all share (assay): co-IP; total rat hippocampal lysates with primary antibody and Protein A/G agarose, 4°C; buffer pH 7.4, 0.05 mol/L HEPES, 0.15 mol/L NaCl, 0.5% NP-40, 1% Triton X-100; non-immune IgG as control; slices untreated or treated with PMA (0.5 umol/L, 10 min) and/or AIP (1 umol/L)
Test [1] addresses Rab11 family-interacting protein 3 (rat (endogenous in hippocampus)).
Test [2] has as its target small GTPase Rab11 (rat (endogenous in hippocampus)) (UniProt P62494).
The target in test [3] is myosin Va (rat (endogenous in hippocampus)) (UniProt Q9QYF3).
myosin Va (rat (endogenous in hippocampus)), sequence (Q9QYF3 whole entry): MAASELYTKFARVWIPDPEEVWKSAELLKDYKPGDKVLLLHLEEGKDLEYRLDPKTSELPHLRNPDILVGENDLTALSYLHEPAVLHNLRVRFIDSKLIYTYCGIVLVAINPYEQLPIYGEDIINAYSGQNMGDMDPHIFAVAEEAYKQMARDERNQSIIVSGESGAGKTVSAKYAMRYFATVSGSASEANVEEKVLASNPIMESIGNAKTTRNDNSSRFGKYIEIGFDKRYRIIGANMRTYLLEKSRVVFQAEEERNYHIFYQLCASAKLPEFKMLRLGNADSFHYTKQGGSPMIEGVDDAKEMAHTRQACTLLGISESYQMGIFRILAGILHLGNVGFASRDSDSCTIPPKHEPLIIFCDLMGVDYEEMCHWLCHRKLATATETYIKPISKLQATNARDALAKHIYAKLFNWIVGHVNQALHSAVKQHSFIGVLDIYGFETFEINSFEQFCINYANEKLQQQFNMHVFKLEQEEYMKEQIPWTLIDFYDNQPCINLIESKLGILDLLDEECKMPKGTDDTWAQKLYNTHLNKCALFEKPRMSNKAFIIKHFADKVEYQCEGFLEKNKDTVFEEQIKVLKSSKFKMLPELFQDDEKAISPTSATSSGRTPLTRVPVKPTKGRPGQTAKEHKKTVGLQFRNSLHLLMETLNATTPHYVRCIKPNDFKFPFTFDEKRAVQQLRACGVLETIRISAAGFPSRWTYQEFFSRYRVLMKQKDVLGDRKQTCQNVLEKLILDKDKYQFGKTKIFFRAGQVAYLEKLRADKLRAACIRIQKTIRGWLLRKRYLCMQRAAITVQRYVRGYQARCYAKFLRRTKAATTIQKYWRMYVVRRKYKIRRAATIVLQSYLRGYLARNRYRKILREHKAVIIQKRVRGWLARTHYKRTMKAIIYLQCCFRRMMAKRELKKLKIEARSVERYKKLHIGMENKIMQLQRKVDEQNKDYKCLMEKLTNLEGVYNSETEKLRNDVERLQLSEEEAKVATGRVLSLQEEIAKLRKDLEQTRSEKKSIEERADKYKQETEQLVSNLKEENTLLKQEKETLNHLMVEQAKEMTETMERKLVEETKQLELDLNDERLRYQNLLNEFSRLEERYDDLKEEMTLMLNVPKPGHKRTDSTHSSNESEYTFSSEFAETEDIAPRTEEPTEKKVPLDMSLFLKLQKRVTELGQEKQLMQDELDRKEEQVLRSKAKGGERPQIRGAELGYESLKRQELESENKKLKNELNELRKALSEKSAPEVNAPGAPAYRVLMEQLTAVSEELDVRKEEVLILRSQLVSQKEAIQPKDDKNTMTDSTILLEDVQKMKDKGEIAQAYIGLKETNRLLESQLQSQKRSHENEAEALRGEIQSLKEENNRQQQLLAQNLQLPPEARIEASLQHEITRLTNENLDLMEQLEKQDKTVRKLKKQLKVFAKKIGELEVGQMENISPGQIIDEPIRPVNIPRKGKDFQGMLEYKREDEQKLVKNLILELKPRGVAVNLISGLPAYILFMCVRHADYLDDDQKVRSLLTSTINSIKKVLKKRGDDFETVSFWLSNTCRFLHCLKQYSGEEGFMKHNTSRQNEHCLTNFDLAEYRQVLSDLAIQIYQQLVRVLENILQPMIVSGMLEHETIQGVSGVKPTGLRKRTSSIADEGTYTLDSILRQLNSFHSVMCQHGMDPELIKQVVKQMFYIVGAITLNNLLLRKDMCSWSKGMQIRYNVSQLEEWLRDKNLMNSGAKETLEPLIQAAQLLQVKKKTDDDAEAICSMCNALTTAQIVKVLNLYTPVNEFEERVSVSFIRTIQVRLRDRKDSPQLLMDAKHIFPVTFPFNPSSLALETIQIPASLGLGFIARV
Test [4] has as its target NMDA receptor subunit GluN1 (rat (endogenous in hippocampus)) (UniProt P35439).

The record followed here is paper PMC11306496.

small GTPase Rab11 (rat (endogenous in hippocampus)), sequence (P62494 whole entry): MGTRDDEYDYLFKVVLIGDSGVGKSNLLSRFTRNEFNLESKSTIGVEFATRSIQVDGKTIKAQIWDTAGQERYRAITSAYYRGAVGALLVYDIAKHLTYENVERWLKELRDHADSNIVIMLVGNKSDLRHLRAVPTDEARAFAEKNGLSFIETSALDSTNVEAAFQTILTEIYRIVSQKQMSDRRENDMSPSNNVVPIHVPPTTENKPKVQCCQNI
small GTPase Rab11, sequence (P62494 whole entry): as above
NMDA receptor subunit GluN2A, sequence (Q00959 23-1464): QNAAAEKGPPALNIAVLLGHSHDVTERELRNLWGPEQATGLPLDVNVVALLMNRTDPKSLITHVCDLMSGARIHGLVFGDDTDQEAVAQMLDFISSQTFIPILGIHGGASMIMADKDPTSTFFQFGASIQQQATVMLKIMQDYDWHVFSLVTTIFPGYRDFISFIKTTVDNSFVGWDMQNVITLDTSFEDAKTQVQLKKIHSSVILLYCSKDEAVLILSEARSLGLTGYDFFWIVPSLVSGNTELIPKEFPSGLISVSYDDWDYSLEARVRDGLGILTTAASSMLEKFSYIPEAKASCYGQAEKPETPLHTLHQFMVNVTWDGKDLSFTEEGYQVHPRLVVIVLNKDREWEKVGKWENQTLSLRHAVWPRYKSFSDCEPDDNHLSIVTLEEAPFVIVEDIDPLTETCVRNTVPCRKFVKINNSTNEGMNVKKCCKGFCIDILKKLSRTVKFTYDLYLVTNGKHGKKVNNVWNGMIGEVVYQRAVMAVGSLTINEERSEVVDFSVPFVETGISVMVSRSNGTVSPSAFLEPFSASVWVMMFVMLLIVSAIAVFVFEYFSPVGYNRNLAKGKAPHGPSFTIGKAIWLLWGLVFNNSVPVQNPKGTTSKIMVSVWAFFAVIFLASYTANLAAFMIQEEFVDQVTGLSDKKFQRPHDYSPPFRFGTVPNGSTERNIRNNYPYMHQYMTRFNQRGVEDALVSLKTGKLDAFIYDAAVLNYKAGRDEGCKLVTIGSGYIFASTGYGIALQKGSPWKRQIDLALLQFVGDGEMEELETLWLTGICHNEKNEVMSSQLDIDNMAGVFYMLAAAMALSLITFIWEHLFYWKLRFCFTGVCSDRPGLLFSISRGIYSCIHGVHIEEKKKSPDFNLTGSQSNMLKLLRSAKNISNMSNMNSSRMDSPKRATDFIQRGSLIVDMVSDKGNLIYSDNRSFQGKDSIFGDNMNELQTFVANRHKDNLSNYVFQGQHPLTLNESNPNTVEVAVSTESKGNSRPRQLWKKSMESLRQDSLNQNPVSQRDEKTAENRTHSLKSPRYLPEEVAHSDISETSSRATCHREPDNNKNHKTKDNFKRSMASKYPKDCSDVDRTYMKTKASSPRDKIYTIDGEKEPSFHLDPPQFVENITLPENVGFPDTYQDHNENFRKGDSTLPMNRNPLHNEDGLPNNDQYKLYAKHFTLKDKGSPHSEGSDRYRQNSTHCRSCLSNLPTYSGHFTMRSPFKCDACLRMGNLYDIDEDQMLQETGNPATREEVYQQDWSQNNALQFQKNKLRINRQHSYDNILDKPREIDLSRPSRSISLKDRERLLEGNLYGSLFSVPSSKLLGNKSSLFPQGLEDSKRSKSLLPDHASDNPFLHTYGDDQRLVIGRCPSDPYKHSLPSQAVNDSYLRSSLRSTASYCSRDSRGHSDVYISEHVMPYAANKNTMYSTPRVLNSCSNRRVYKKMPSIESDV

With “myosin Va (from UniProt Q9QYF3 1-1828) (natural protein)”, the co-IP signal with PMA, normalised to control (IP with anti-FIP3) (fold of control) in test [1] amounted to 1.33. This substance also gave a co-IP signal with PMA, normalised to control (IP with anti-Rab11) (fold of control) in test [2] of 1.33.
Consider “NMDA receptor subunit GluN1 (from UniProt P35439 19-938)”, for which the co-IP signal with PMA, normalised to control (IP with anti-FIP3) (fold of control) in test [1] is 1.44. In test [2], this substance displayed a co-IP signal with PMA, normalised to control (IP with anti-Rab11) (fold of control) of 1.5.
“small GTPase Rab11 (from UniProt P62494 1-216) (natural protein)” had a co-IP signal with PMA, normalised to control (IP with anti-MyoVa) (fold of control) in test [3] of 1.31. Moreover, the co-IP signal with PMA, normalised to control (IP with anti-FIP3) (fold of control) in test [1] is 1.38. Besides, in test [4], the co-IP signal with PMA, normalised to control (IP with anti-GluN1) (fold of control) was 1.53.
Consider “NMDA receptor subunit GluN2A (from UniProt Q00959 23-1464)”, for which the co-IP signal with PMA, normalised to control (IP with anti-FIP3) (fold of control) in test [1] came out at 1.45. The co-IP signal with PMA, normalised to control (IP with anti-Rab11) (fold of control) in test [2] worked out at 1.39.
The substance “Rab11 family-interacting protein 3 (natural protein)” registered a co-IP signal with PMA, normalised to control (IP with anti-GluN1) (fold of control) in test [4] of 1.37.
